According to article PMC11470957, “Principles of paralog-specific targeted protein degradation engaging the C-degron E3 KLHDC2” (Nature Communications, 2024):

B1: BRD3^BD2 (second bromodomain of BRD3, residues 306-416) [not stated] / KLHDC2 substrate binding domain (KLHDC2^SBD, 15-361) [not stated] (parent)
chain 1: GPAFESYESMELACPAERSGHVAVSDGRHMFVWGGYKSNQVRGLYDFYLPREELWIYNMETGRWKKINTEGDVPPSMSGSCAVCVDRVLYLFGGHHSRGNTNKFYMLDSRSTDRVLQWERIDCQGIPPSSKDKLGVWVYKNKLIFFGGYGYLPEDKVLGTFEFDETSFWNSSHPRGWNDHVHILDTETFTWSQPITTGKAPSPRAAHACATVGNRGFVFGGRYRDARMNDLHYLNLDTWEWNELIPQGICPVGRSWHSLTPVSSDHLFLFGGFTTDKQPLSDAWTYCISKNEWIQFNHPYTEKPRLWHTACASDEGEVIVFGGCANNLLVHHRAAHSNEILIFSVQP
chain 2: GKLSEHLRYCDSILREMLSKKHAAYAWPFYKPVDAEALELHDYHDIIKHPMDLSTVKRKMDGREYPDAQGFAADVRLMFSNCYKYNPPDHEVVAMARKLQDVFEMRFAKMP

Variants of: B1
Experiment: ITC
Conditions: with KLHDC2 substrate binding domain (KLHDC2^SBD, 15-361); syringe: KLHDC2SBD; cell: E344G BRD3BD2-SJ46421 (ternary complex via PROTAC SJ46421); n = 2

| Kd [nM] | Variant |
| --- | --- |
| 181 | chain 2 E39G |

Same assay, conditions: with BRD3^BD2 (second bromodomain of BRD3, residues 306-416); syringe: R56A KLHDC2SBD; cell: BRD3BD2-SJ46421 (ternary complex via PROTAC SJ46421); n = 2

| Kd [nM] | Variant |
| --- | --- |
| 273 | chain 1 R42A |
